Assay results: the supplement of paper PMC5998384

Tests used:
HeLa Kyoto [1] = assay: solubility in G1/S (NP-40 vs SDS abundance) (log2 ratio); higher = more soluble; conditions: cell cycle stage: G1/S
HeLa Kyoto [2] = assay: solubility change mitosis vs G1/S (difference of NP-40 vs SDS log2 ratios) (log2 ratio difference); higher = more soluble in mitosis
HeLa Kyoto [3] = assay: thermal stability score vs G1/S (z-score of summed log2 fold changes over temperatures); higher = more thermally stable than in G1/S
[4] = cell cycle stage: early G1 (4.5 h after nocodazole release)
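Wherever solubility change mitosis vs G1/S (difference of NP-40 vs SDS log2 ratios) is given: synchronized HeLa Kyoto cells (double thymidine block for G1/S, nocodazole release for mitosis), protein amounts in NP-40 versus SDS lysates quantified by mass spectrometry, three biological replicates.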
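Wherever solubility in G1/S (NP-40 vs SDS abundance) is given: HeLa Kyoto cells arrested at G1/S by double thymidine block, proteins quantified by TMT10plex mass spectrometry in mild NP-40 versus SDS extracts, three biological replicates.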
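Wherever thermal stability score vs G1/S (z-score of summed log2 fold changes over temperatures) is given: synchronized HeLa Kyoto cells, proteins quantified by TMT10plex mass spectrometry, three biological replicates, mitosis taken 0.5 h after nocodazole release, G1/S directly after double thymidine block.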

| Sequence | solubility in G1/S (log2) (HeLa Kyoto [1]) | solubility change mitosis (log2) (HeLa Kyoto [2]) | thermal stability score (HeLa Kyoto [3]; [4]) | thermal stability score (HeLa Kyoto [3]; cell cycle stage: mitosis) |
| --- | --- | --- | --- | --- |
| MLPFLLATLGTTALNNSNPKDYCYSARIRSTVLQGLPFGGVPTVLALDFMCFLALLFLFSILRKVAWDYGRLALVTDADRLRRQERDRVEQEYVASAMHGDSHDRYERLTSVSSSVDFDQRDNGFCSWLTAIFRIKDDEIRDKCGGDAVHYLSFQRHIIGLLVVVGVLSVGIVLPVNFSGDLLENNAYSFGRTTIANLKSGNNLLWLHTSFAFLYLLLTVYSMRRHTSKMRYKEDDLVKRTLFINGISKYAESEKIKKHFEEAYPNCTVLEARPCYNVARLMFLDAERKKAERGKLYFTNLQSKENVPTMINPKPCGHLCCCVVRGCEQVEAIEYYTKLEQKLKEDYKREKEKVNEKPLGMAFVTFHNETITAIILKDFNVCKCQGCTCRGEPRPSSCSESLHISNWTVSYAPDPQNIYWEHLSIRGFIWWLRCLVINVVLFILLFFLTTPAIIITTMDKFNVTKPVEYLNNPIITQFFPTLLLWCFSALLPTIVYYSAFFEAHWTRSGENRTTMHKCYTFLIFMVLLLPSLGLSSLDLFFRWLFDKKFLAEAAIRFECVFLPDNGAFFVNYVIASAFIGNAMDLLRIPGLLMYMIRLCLARSAAERRNVKRHQAYEFQFGAAYAWMMCVFTVVMTYSITCPIIVPFGLMYMLLKHLVDRYNLYYAYLPAKLDKKIHSGAVNQVVAAPILCLFWLLFFSTMRTGFLAPTSMFTFVVLVITIVICLCHVCFGHFKYLSAHNYKIEHTETDTVDPRSNGRPPTAAAVPKSAKYIAQVLQDSEVDGDGDGAPGSSGDEPPSSSSQDEELLMPPDALTDTDFQSCEDSLIENEIHQ [TMEM63B] | -0.0696 | -0.109 | -2.78 | -2.41 |
| MAEDWLDCPALGPGWKRREVFRKSGATCGRSDTYYQSPTGDRIRSKVELTRYLGPACDLTLFDFKQGILCYPAPKAHPVAVASKKRKKPSRPAKTRKRQVGPQSGEVRKEAPRDETKADTDTAPASFPAPGCCENCGISFSGDGTQRQRLKTLCKDCRAQRIAFNREQRMFKRVGCGECAACQVTEDCGACSTCLLQLPHDVASGLFCKCERRRCLRIVERSRGCGVCRGCQTQEDCGHCPICLRPPRPGLRRQWKCVQRRCLRGKHARRKGGCDSKMAARRRPGAQPLPPPPPSQSPEPTEPHPRALAPSPPAEFIYYCVDEDELQPYTNRRQNRKCGACAACLRRMDCGRCDFCCDKPKFGGSNQKRQKCRWRQCLQFAMKRLLPSVWSESEDGAGSPPPYRRRKRPSSARRHHLGPTLKPTLATRTAQPDHTQAPTKQEAGGGFVLPPPGTDLVFLREGASSPVQVPGPVAASTEALLQEAQCSGLSWVVALPQVKQEKADTQDEWTPGTAVLTSPVLVPGCPSKAVDPGLPSVKQEPPDPEEDKEENKDDSASKLAPEEEAGGAGTPVITEIFSLGGTRFRDTAVWLPRSKDLKKPGARKQ [MBD1] | -0.475 | 0.37 | -0.407 | -0.0664 |
| MEEELQHSHCVNCVSRRCMTRPEPGISCDLIGCPLVCGAVFHSCKADEHRLLCPFERVPCLNSDFGCPFTMARNKVAEHLEMCPASVVCCTMEWNRWPVSYADRKSYENLSRDVDEVAQLDMALALQDQRMLLESLKVATMMSKATDKVSKPREQISVKSSVPEIPHANGLVSVDEESYGALYQATVETTRSLAAALDILNTATRDIGMLNTSVPNDMDEQQNARESLEDQNLKDQDHLYEEEIGAVGGIDYNDTNQNAQSEQNGSSDLLCDLNTSSYDTSALCNGFPLENICTQVIDQNQNLHGDSKQSNLTNGDCVASSDGTSKPSSSLAVAAQLREIIPSSALPNGTVQHILMPDDEGEGELCWKKVDLGDVKNVDVLSFSHAPSFNFLSNSCWSKPKEDKAVDTSDLEVAEDPMGLQGIDLITAALLFCLGDSPGGRGISDSRMADIYHIDVGTQTFSLPSAILATSTMVGEIASASACDHANPQLSNPSPFQTLGLDLVLECVARYQPKQRSMFTFVCGQLFRRKEFSSHFKNVHGDIHAGLNGWMEQRCPLAYYGCTYSQRRFCPSIQGAKIIHDRHLRSFGVQPCVSTVLVEPARNCVLGLHNDHLSSLPFEVLQHIAGFLDGFSLCQLSCVSKLMRDVCGSLLQSRGMVILQWGKRKYPEGNSSWQIKEKVWRFSTAFCSVNEWKFADILSMADHLKKCSYNVVEKREEAIPLPCMCVTRELTKEGRSLRSVLKPVL [FBXO30] | -0.564 | 0.106 | 0.306 | 1.03 |
